Marks after values point to notes of the source that are not given here.

One experiment deals with septic shock. As to conditions: urinary and recombinant TBP-1 (CHO and E. Coli); cited from earlier work.
For experiment [1], the system named is septic shock induced by LPS + D-Galactosamine, in mice. Nature of the experiment: LPS+D-Galactosamine-induced septic shock model. Type of experiment: in vivo, SPF female BALB/c inbred mice. The protocol:
The experiments were carried out in vivo on mice. The septic shock was induced by an i.p. administration of a mixture of LPS (0.1 μg/mouse) and D-Galactosamine (18 mg/mouse).
The treatment schedule for r-hTBP-1 based on repeated administrations (the total dose was divided into 4 administrations given at time 0 and […] and 24 hours after), was adopted. CHO r-hTBP-1 was tested, alone or in combination with DHEA, at dose levels of 62.5 and 125 μg/mouse (total dose).
DHEA was tested both in a single administration injected i.p. one hour before and contemporaneously to the septic shock-inducing agent at doses encompassed between 100 and 2.000 μg/mouse and in repeated treatment with the total dose (250 μg/mouse) divided into 4 injections given within 24 hours.
The above treatment schedules of DHEA (doses from 250 to 1,500 μl g/mouse) were followed also in combination with r-hTBP-1 which was tested at the total dose varying from 62.5 to 125 μg/mouse (divided into 4 administrations).
SPF female BALB/c inbred mice, 6–8 weeks (about 18–20 g b.w.), from Charles River were used throughout the whole study after an acclimatisation period of at least 7 days.
Unless otherwise specified, in all the experiments the mice were randomly divided into groups of 10 animals each.
Both substances were dissolved in saline. The mixture of LPS (0.1 μg/mouse) and D-Galactosamine (18 mg/mouse) was prepared by mixing equal volumes of these substances. The mixture was subsequently injected to animals by the i.p. route. This dose was selected under precious experiments as that inducing around 80% mortality calculated as the number of dead vs. total number of mice for each croup. The lethality was monitored after 24, 48, 72 and 96 hours and at day 7 post-treatment.
The drug was diluted in saline and injected by repeated administrations, i.e. i.v. immediately before the inoculum of LPS plus D-Galactosamine and s.c. 3, 6 and 24 hours later.
The effects of DHEA, alone or in combination with r-hTBP-1, were assayed after single i.p. administrations at different times in respect to LPS+D-Galactosamine injection; in particular, it was administered 1 hour before and contemporaneously to the septic shock-inducing agent.
A repeated treatment schedule was also investigated in which DHEA was administered at time 0 (septic shock induction) and 3, 6 and 24 hours later. DHEA was initially vehicled in a mixture of 2.5% alcohol and 10% rabbit serum in saline. To improve the solubility and standardise the preparation, the steroid was successively dispersed in a mixture of 2.5% alcohol and 10% phospholipid emulsion in saline.
The primary end point was the survival rate at 48 hours after induction of septic shock. The comparison of the effects of each treatment group vs. controls and among treatment groups was effected by Fisher's exact test, one-tailed. The same comparison was also performed at the other time points. The results in each treatment group were expressed as percent survival.
In all the experiments, percent survival values were calculated using the survival Tables for the follow up studies (Armitage P. Cap. XIV. Tavole di sopravvivenza in Statistica Medica, Feltrinelli, Milano). The χ^2-test was applied to each observation time by comparing the DHEA+r-hTBP-1 groups to the other groups.

B1: TBP-1: urinary as well as recombinant TBP-1 (derived from both CHO and E. Coli cells), literature (protein, UniProt P19438 30-211, looked up)
extracellular domain: LVPHLGDREKRDSVCPQGKYIHPQNNSICCTKCHKGTYLYNDCPGPGQDTDCRECESGSFTASENHLRHCLSCSKCRKEMGQVEISSCTVDRDTVCGCRKNQYRHYWSENLFQCFNCSLCLNGTVHLSCQEKQNTVCTCHAGFFLRENECVSCSNCKKSLECTKLCLPQIENVKGTEDSGTT
modifications: extracellular domain
notes: urinary as well as recombinant TBP-1 (derived from both CHO and E. Coli cells), literature
Regarding B1, in the experiment with septic shock, the “in vivo protective effects” value is given as “protective effects”.

B2: r-hTBP-1: CHO recombinant human TBP-1, the extracellular soluble domain of TNF-R1 (TNF Binding Protein-1) (protein, UniProt P19438 30-211, looked up)
extracellular domain: B1 extracellular domain
modifications: extracellular domain
As for B2, the “% cumulative survival” value in experiment [1] (Table 2, r-hTBP-1 125 μg/mouse, time 0 (i.v.) and 3, 6, 24 hours (s.c.), 24 hrs) is listed as 50%; in experiment [1] (Table 2, r-hTBP-1 125 μg/mouse, time 0 (i.v.) and 3, 6, 24 hours (s.c.), 48 hrs), 50%; in experiment [1] (Table 2, r-hTBP-1 125 μg/mouse, time 0 (i.v.) and 3, 6, 24 hours (s.c.), 72 hrs), 50%; in experiment [1] (Table 2, r-hTBP-1 125 μg/mouse, time 0 (i.v.) and 3, 6, 24 hours (s.c.), 96 hrs), 50%; in experiment [1] (Table 4, r-hTBP-1 62.5 μg/mouse, time 0 (i.v.) and 3, 6, 24 hours (s.c.), 24 hr) it was 20%; in experiment [1] (Table 4, r-hTBP-1 62.5 μg/mouse, time 0 (i.v.) and 3, 6, 24 hours (s.c.), 48 hr), 10%. Also, the “% cumulative survival” value in experiment [1] (Table 4, r-hTBP-1 62.5 μg/mouse, time 0 (i.v.) and 3, 6, 24 hours (s.c.), 72 hr) is reported as 0%; in experiment [1] (Table 4, r-hTBP-1 62.5 μg/mouse, time 0 (i.v.) and 3, 6, 24 hours (s.c.), 96 hr), 0%; in experiment [1] (Table 5 group C, r-hTBP-1 62.5 μg, time 0 i.v. and 3, 6, 24 hours s.c., 24 hrs, 1st exp.) it was 90^a %; in experiment [1] (Table 5 group C, r-hTBP-1 62.5 μg, time 0 i.v. and 3, 6, 24 hours s.c., 24 hrs, 2nd exp.), 70^a %; in experiment [1] (Table 5 group C, r-hTBP-1 62.5 μg, time 0 i.v. and 3, 6, 24 hours s.c., 48 hrs, 1st exp.) it was 80^a %; in experiment [1] (Table 5 group C, r-hTBP-1 62.5 μg, time 0 i.v. and 3, 6, 24 hours s.c., 48 hrs, 2nd exp.) it was 40%. For the same molecule, the “% cumulative survival” value in experiment [1] (Table 5 group C, r-hTBP-1 62.5 μg, time 0 i.v. and 3, 6, 24 hours s.c., 72 hrs, 1st exp.) is reported as 70^a %; in experiment [1] (Table 5 group C, r-hTBP-1 62.5 μg, time 0 i.v. and 3, 6, 24 hours s.c., 72 hrs, 2nd exp.) it was 30%; in experiment [1] (Table 5 group C, r-hTBP-1 62.5 μg, time 0 i.v. and 3, 6, 24 hours s.c., 96 hrs, 1st exp.) it was 70^a %; in experiment [1] (Table 5 group C, r-hTBP-1 62.5 μg, time 0 i.v. and 3, 6, 24 hours s.c., 96 hrs, 2nd exp.), 30%. Further, the “protection (survival)” value in experiment [1] (r-hTBP-1 62.5 μg/mouse alone) is listed as 20%. Further, the survival entry is “about 50%” in experiment [1] (r-hTBP-1 125 μg/mouse alone (suboptimal dose)) and 50% in experiment [1] (text (conclusions), r-hTBP-1 125 μg/mouse total dose alone).

The values are drawn from patent US7012060B1, “TNF receptor and steroid hormone in a combined therapy” (priority 1995, dated 2006).
